Assay [1] deals with G20c portal protein L49C conjugated with maleimide-porphyrin (bacteriophage G20c). As to the kind of experiment: SEC.
Assay [2] addresses G20c portal protein L49C single mutant (bacteriophage G20c). The assay can be described thus: negative-stain transmission electron microscopy.
The target of assay [3] is G20c portal protein L49C/V325G/I328G conjugated with maleimide-porphyrin (bacteriophage G20c). The assay can be described thus: SEC.
Assay [4] has as its target G20c portal protein L49C/V325G/I328G triple mutant (bacteriophage G20c). The assay can be described thus: negative-stain transmission electron microscopy.
Assay [5] concerns the target G20c portal protein V325G mutant (bacteriophage G20c). The assay can be described thus: crystal structure.
The target of assay [6] is G20c portal protein V325G/I328G double mutant (bacteriophage G20c). As to the kind of experiment: X-ray diffraction, self-rotation function.

Values joined by “and” are separate entries in the source; they are usually repeats but may differ in a detail not shown here. Equal values may be shown once.

For “G20c portal protein L49C conjugated with maleimide-porphyrin (natural protein)”, in assay [1], the stoichiometry N is 12 and 24.

In assay [2], “G20c portal protein L49C single mutant (natural protein)” displayed a stoichiometry N of 12. In the case of “G20c portal protein L49C/V325G/I328G conjugated with maleimide-porphyrin (natural protein)”, in assay [3], the stoichiometry N was 12 and 24.

In assay [4], “G20c portal protein L49C/V325G/I328G triple mutant (natural protein)” showed a stoichiometry N of 12. In turn, “G20c portal protein V325G mutant (natural protein)” displayed a stoichiometry N in assay [5] of 12.

Substance “G20c portal protein V325G/I328G double mutant (natural protein)” registered a stoichiometry N in assay [6] of 12.

For the origin of these results see publication PMC5963890.
